Laboratory results published in PMC6833485.

Molecular target: thrombin (Homo sapiens, UniProt P00734;P00734 328-363;364-622)
Experiment: reflectometric interference spectroscopy (RIfS), immobilized aptamer; PBS + MgCl2; sigmoidal fit of dEOT; Binding buffer PBS + MgCl2 (concentration, pH not given); TBA preheated 95 °C 5 min, cooled to room temperature; flow cell, assay temperature not stated

How did the Kd turn out when GGTTGGTGTGGTTGG (structured_DNA, 5'-biotin) [TBA 15-mer (5'-biotin)] was run?
The Kd was 900 nM.
